Assay results: patent publication US9060970B2, “Bridge-helix cap: target and method for inhibition of bacterial RNA polymerase” (priority 2011, dated 2015)
Converted amounts (≈) assume the structure as drawn. “Also recorded” adds a separate entry of the source. Marks after values point to notes of the source that are not given here.

Key:
E. coli D21f2tolC [1] = assay: Broth microdilution MIC, wild-type rpoC and rpoB; format: cell-based, Escherichia coli; conditions: LB broth, 16 h at 37° C., lowest concentration inhibiting growth by 95%
Experimental: (§1) Quantitation of Resistance to Sal. Resistance to Sal was quantified by performing broth microdilution assays. Single colonies were inoculated into 3 ml LB broth, and incubated 3-6 h at 37° C. with shaking. Diluted aliquots (2×10^4 cells in 98 μl LB broth; concentrations determined using OD600=1 for 10^9 cells) were dispensed into wells of a 96-well plate, were supplemented with 2 μl of a 2-fold dilution series of Sal in methanol (final concentrations of […], 0.390, 0.195, 0.0975, 0.0488, 0.0244, 0.0122, and 0.00609 μg/ml) or 2 μl of a solvent blank, and were incubated 16 h at 37° C. with shaking. The minimum inhibitory concentration (MIC) was defined as the lowest tested concentration of Sal that inhibited bacterial growth by 95%.
(§2) Quantitation of Cross-Resistance to Rifampin and CBR703. Cross-resistance levels were determined analogously to resistance levels, using 0.12-0.78 μg/ml of rifampin (Sigma, Inc.) and 0.39-25 μg/ml of CBR703 (Maybridge, Inc.).

[2] = test system: Sal-resistant mutants of E. coli D21f2tolC (rpoC / rpoB substitutions); assay: Broth microdilution resistance / cross-resistance levels of spontaneous Sal-resistant mutants; format: cell-based, Escherichia coli; conditions: for cross-resistance of Sal-resistant mutants (in words): broth microdilution (Table 4); for cross-resistance level (MIC/MICwild-type): values <1 = hypersensitivity
Experimental: (§3) Isolation of Sal-Resistant Mutants: Spontaneous Sal-Resistant Mutants. E. coli D21f2tolC (6) was cultured to saturation in 5 ml LB broth (7) at 37° C., cultures were centrifuged, and cell pellets (˜3×10^9 cells) were re-suspended in 50 μl LB broth and plated on LB agar (7) containing 1.2 μg/ml Sal (a concentration four times the minimal concentration required to prevent growth of wild-type cells under these conditions), and incubated 24-48 h at 37° C. Sal-resistant mutants were identified by the ability to form colonies on this medium and were confirmed by re-streaking on the same medium.
as §1, §2

E. coli D21f2tolC [3] = assay: Spontaneous resistance frequency by plating on LB agar containing inhibitor; format: cell-based, Escherichia coli; conditions: LB agar, each compound at 4×MIC, colonies counted after 24 h at 37° C.
Excerpt: Sal-Resistant Mutants Map to RNAP-Subunit Genes. To determine whether Sal kills bacteria by inhibiting RNAP, spontaneous Sal-resistant mutants were isolated, and genes for RNAP subunits in Sal-resistant mutants were PCR-amplified and sequenced (FIG. 3A). Spontaneous Sal-resistant mutants were isolated by plating high-density cultures of E. coli D21f2tolC (˜3×10^9 cells per plate) on agar containing Sal and identifying rare resistant colonies (FIG. 3B). For each Sal-resistant mutant, genomic DNA was prepared, and the genes for the largest RNAP subunit and the second-largest RNAP subunit—rpoC encoding RNAP β′ subunit and rpoB encoding RNAP β subunit were PCR-amplified and sequenced (FIG. 3C).
Co-Administration of Sal and Rifampin Reduces Spontaneous Resistance to Undetectable Levels.
Co-Administration of Sal and CBR703 Reduces Spontaneous Resistance to Undetectable Levels.
as §3

[4] = target: E. coli RNAP, β′ subunit 738 Arg→Ser (Escherichia coli) (UniProt P0A8T7); assay: cell-based or functional assay
[5] = target: E. coli RNAP, β subunit 677 Asn→Lys (Escherichia coli) (UniProt P0A8T7); assay: cell-based or functional assay
[6] = target: E. coli RNAP, β′ subunit 748 Ala→Glu (Escherichia coli) (UniProt P0A8T7); assay: cell-based or functional assay
[7] = target: Escherichia coli RNA polymerase with wild-type rpoC and wild-type rpoB, in E. coli D21f2tolC (Escherichia coli) (UniProt P0A8T7); assay: cell-based or functional assay
[8] = target: E. coli RNAP, β′ subunit 758 Pro→Thr (Escherichia coli) (UniProt P0A8T7); assay: cell-based or functional assay
[9] = target: E. coli RNAP, β′ subunit 690 Asn→Asp (Escherichia coli) (UniProt P0A8T7); assay: cell-based or functional assay
[10] = target: E. coli RNAP, β′ subunit 738 Arg→His (Escherichia coli) (UniProt P0A8T7); assay: cell-based or functional assay
[11] = target: E. coli RNAP, β subunit 526 His→Asp (Escherichia coli) (UniProt P0A8T7); assay: cell-based or functional assay
[12] = target: E. coli RNAP, β subunit 665 Ala→Glu (Escherichia coli) (UniProt P0A8T7); assay: cell-based or functional assay
[13] = target: E. coli RNAP, β′ subunit 782 Gly→Cys (Escherichia coli) (UniProt P0A8T7); assay: cell-based or functional assay
[14] = target: E. coli RNAP, β′ subunit 738 Arg→Pro (Escherichia coli) (UniProt P0A8T7); assay: cell-based or functional assay
[15] = target: E. coli RNAP, β subunit 516 Asp→Val (Escherichia coli) (UniProt P0A8T7); assay: cell-based or functional assay
[16] = target: E. coli RNAP, β′ subunit 775 Ser→Ala (Escherichia coli) (UniProt P0A8T7); assay: cell-based or functional assay
[17] = target: E. coli RNAP, β subunit 531 Ser→Leu (Escherichia coli) (UniProt P0A8T7); assay: cell-based or functional assay
[18] = target: E. coli RNAP, β subunit 675 Asp→Ala (Escherichia coli) (UniProt P0A8T7); assay: cell-based or functional assay
[19] = target: E. coli RNAP, β′ subunit 780 Arg→Cys (Escherichia coli) (UniProt P0A8T7); assay: cell-based or functional assay
[20] = target: E. coli RNAP, β′ subunit 783 Leu→Arg (Escherichia coli) (UniProt P0A8T7); assay: cell-based or functional assay
[21] = target: E. coli RNAP, β′ subunit 738 Arg→Cys (Escherichia coli) (UniProt P0A8T7); assay: cell-based or functional assay
[22] = target: E. coli RNAP, β subunit 677 Asn→His (Escherichia coli) (UniProt P0A8T7); assay: cell-based or functional assay
[23] = target: E. coli RNAP, β subunit 526 His→Tyr (Escherichia coli) (UniProt P0A8T7); assay: cell-based or functional assay
[24] = target: E. coli RNAP, β′ subunit 758 Pro→Ser (Escherichia coli) (UniProt P0A8T7); assay: cell-based or functional assay
[25] = target: E. coli RNAP, β subunit 680 Leu→Met (Escherichia coli) (UniProt P0A8T7); assay: cell-based or functional assay
[26] = target: E. coli RNAP, β′ subunit 779 Ala→Thr (Escherichia coli) (UniProt P0A8T7); assay: cell-based or functional assay
[27] = target: E. coli RNAP, β′ subunit 779 Ala→Val (Escherichia coli) (UniProt P0A8T7); assay: cell-based or functional assay
[28] = target: E. coli RNAP, β′ subunit 763 Phe→Cys (Escherichia coli) (UniProt P0A8T7); assay: cell-based or functional assay
[29] = target: E. coli RNAP, β subunit 561 Ile→Ser (Escherichia coli) (UniProt P0A8T7); assay: cell-based or functional assay
[30] = target: E. coli RNAP, β subunit 569 Ile→Ser (Escherichia coli) (UniProt P0A8T7); assay: cell-based or functional assay
[31] = target: E. coli RNAP, β′ subunit 697 Met→Val (Escherichia coli) (UniProt P0A8T7); assay: cell-based or functional assay

## CO[C@H]1/C=C/O[C@@]2(C)Oc3c(C)c(O)c4c(O)c(c(/C=N/N5CCN(C)CC5)c(O)c4c3C2=O)NC(=O)/C(C)=C\C=C\[C@H](C)[C@H](O)[C@@H](C)[C@@H](O)[C@@H](C)[C@H](OC(C)=O)[C@@H]1C [rifampin]
E. coli D21f2tolC [1]; Escherichia coli, D21F2TOLC
  MIC: 0.098 µg/mL (≈ 0.119 µM)
[2]
  cross-resistance of Sal-resistant mutants (in words): not cross-resistant; also recorded: no cross-resistance
[2]; {}
  hypersensitivity of Sal-resistant mutants: 2 fold
E. coli D21f2tolC [3]
  spontaneous resistance frequency: 1×10^−8
E. coli D21f2tolC [3]; listed as Rif
  spontaneous resistance frequency: 1 × 10^−8

## ONC(=Nc1ccccc1)c1cccc(C(F)(F)F)c1 [CBR703]
E. coli D21f2tolC [1]
  MIC with wild-type rpoC and wild-type rpoB: 6.25 µg/mL
[2]; Sal-resistant mutant rpoB (RNAP β subunit) 569 Ile→Ser
  cross-resistance level (MIC/MICwild-type): 1
[2]; Sal-resistant mutant rpoB (RNAP β subunit) 675 Asp→Ala
  cross-resistance level (MIC/MICwild-type): ≦0.25
[2]; Sal-resistant mutant rpoB (RNAP β subunit) 677 Asn→His
  cross-resistance level (MIC/MICwild-type): 1
[2]; Sal-resistant mutant rpoB (RNAP β subunit) 677 Asn→Lys
  cross-resistance level (MIC/MICwild-type): ≦0.25
[2]; Sal-resistant mutant rpoC (RNAP β′ subunit) 690 Asn→Asp
  cross-resistance level (MIC/MICwild-type): ≦0.25^b
[2]; Sal-resistant mutant rpoC (RNAP β′ subunit) 697 Met→Val
  cross-resistance level (MIC/MICwild-type): 0.5
[2]; Sal-resistant mutant rpoC (RNAP β′ subunit) 738 Arg→Cys
  cross-resistance level (MIC/MICwild-type): ≦0.25
[2]; Sal-resistant mutant rpoC (RNAP β′ subunit) 738 Arg→Pro
  cross-resistance level (MIC/MICwild-type): ≦0.25
[2]; Sal-resistant mutant rpoC (RNAP β′ subunit) 738 Arg→Ser
  cross-resistance level (MIC/MICwild-type): 1
[2]; Sal-resistant mutant rpoC (RNAP β′ subunit) 748 Ala→Glu
  cross-resistance level (MIC/MICwild-type): ≦0.25
[2]; Sal-resistant mutant rpoC (RNAP β′ subunit) 763 Phe→Cys
  cross-resistance level (MIC/MICwild-type): ≦0.25
[2]; Sal-resistant mutant rpoC (RNAP β′ subunit) 779 Ala→Thr
  cross-resistance level (MIC/MICwild-type): 1
[2]; Sal-resistant mutant rpoC (RNAP β′ subunit) 779 Ala→Val
  cross-resistance level (MIC/MICwild-type): ≦0.25
[2]; Sal-resistant mutant rpoC (RNAP β′ subunit) 780 Arg→Cys
  cross-resistance level (MIC/MICwild-type): 0.5
[2]
  cross-resistance of Sal-resistant mutants (in words): no cross-resistance
E. coli D21f2tolC [3]
  spontaneous resistance frequency: 2×10^−10

## salinamide A (peptide)
[4]
  resistance level (MIC/MICwild-type) (MIC/MICwild-type): > 16
[5]
  resistance level (MIC/MICwild-type) (MIC/MICwild-type): > 16
[6]
  resistance level (MIC/MICwild-type) (MIC/MICwild-type): 16
[7]
  MIC (broth microdilution, D21f2tolC pRL663 and D21f2tolC pRL706 derivatives): 0.098 µg/ml
  MIC (broth microdilution, E. coli D21f2tolC): 0.024 µg/mL
[8]
  resistance level (MIC/MICwild-type), plasmid-borne rpoC (MIC/MICwild-type): 4
[9]
  resistance level (MIC/MICwild-type) (MIC/MICwild-type): 16
[10]
  resistance level (MIC/MICwild-type) (MIC/MICwild-type): > 16
[11]
  cross-resistance level (MIC/MICwild-type) to Sal (MIC/MICwild-type): 1
[12]
  resistance level (MIC/MICwild-type), plasmid-borne rpoB (MIC/MICwild-type): 8
[13]
  resistance level (MIC/MICwild-type), plasmid-borne rpoC (MIC/MICwild-type): 8
[14]
  resistance level (MIC/MICwild-type) (MIC/MICwild-type): > 16
[15]
  cross-resistance level (MIC/MICwild-type) to Sal (MIC/MICwild-type): 1
[16]
  resistance level (MIC/MICwild-type) (MIC/MICwild-type): 8
[17]
  cross-resistance level (MIC/MICwild-type) to Sal (MIC/MICwild-type): 1
[18]
  resistance level (MIC/MICwild-type) (MIC/MICwild-type): > 16
[19]
  resistance level (MIC/MICwild-type) (MIC/MICwild-type): > 16
  resistance level (MIC/MICwild-type), plasmid-borne rpoC (MIC/MICwild-type): 8
[20]
  resistance level (MIC/MICwild-type) (MIC/MICwild-type): > 16
[21]
  resistance level (MIC/MICwild-type) (MIC/MICwild-type): > 16
[22]
  resistance level (MIC/MICwild-type) (MIC/MICwild-type): > 16
[23]
  cross-resistance level (MIC/MICwild-type) to Sal (MIC/MICwild-type): 1
[24]
  resistance level (MIC/MICwild-type) (MIC/MICwild-type): 16
[25]
  resistance level (MIC/MICwild-type), plasmid-borne rpoB (MIC/MICwild-type): 4
[26]
  resistance level (MIC/MICwild-type) (MIC/MICwild-type): > 16
[27]
  resistance level (MIC/MICwild-type) (MIC/MICwild-type): > 16
[28]
  resistance level (MIC/MICwild-type) (MIC/MICwild-type): 16
[29]
  resistance level (MIC/MICwild-type), plasmid-borne rpoB (MIC/MICwild-type): 2
[30]
  resistance level (MIC/MICwild-type) (MIC/MICwild-type): > 16
[31]
  resistance level (MIC/MICwild-type) (MIC/MICwild-type): > 16
